According to patent JP2022109630A (dated 2022):

Tests used:
Test in all cases: ELISA, immobilised recombinant L7/L12 (10 ng/mL), antibody 10 ug/mL
[1] = target: T1, 黄色ブドウ球菌(SA)のリボソームタンパク質L7/L12 (黄色ブドウ球菌 (Staphylococcus aureus))
T1 construct: also called Staphylococcus aureus ribosomal protein L7/L12; SA L7/L12

緑膿菌(PA)のリボソームタンパク質L7/L12 = target: T2, 緑膿菌(PA)のリボソームタンパク質L7/L12 (緑膿菌 (Pseudomonas aeruginosa))
T2 construct: also called Pseudomonas aeruginosa ribosomal protein L7/L12; PA L7/L12

[2] = target: T3, クレブシエラ・ニューモニエ(KP)のリボソームタンパク質L7/L12 (クレブシエラ・ニューモニエ (Klebsiella pneumoniae))
T3 construct: also called 肺炎桿菌; Klebsiella pneumoniae ribosomal protein L7/L12

[3] = target: T4, モラキセラ菌(MC)のリボソームタンパク質L7/L12 (モラキセラ菌 (Moraxella catarrhalis))
T4 construct: also called Moraxella catarrhalis ribosomal protein L7/L12; MC L7/L12

[4] = target: T5, 溶連菌(SPY)のリボソームタンパク質L7/L12 (溶連菌 (Streptococcus pyogenes))
T5 construct: also called Streptococcus pyogenes ribosomal protein L7/L12; SPY L7/L12

[5] = target: T6, 髄膜炎菌(NM)のリボソームタンパク質L7/L12 (髄膜炎菌 (Neisseria meningitidis))
T6 construct: also called Neisseria meningitidis ribosomal protein L7/L12; NM L7/L12

淋菌(NG)のリボソームタンパク質L7/L12 = target: T7, 淋菌(NG)のリボソームタンパク質L7/L12 (淋菌 (Neisseria gonorrhoeae))
T7 construct: also called Neisseria gonorrhoeae ribosomal protein L7/L12; NG L7/L12

[6] = target: T8, クラミジア・トラコマチス(CT)のリボソームタンパク質L7/L12 (クラミジア・トラコマチス (Chlamydia trachomatis))
T8 construct: also called Chlamydia trachomatis ribosomal protein L7/L12; CT L7/L12

[7] = target: T9, サルモネラ菌(SE)のリボソームタンパク質L7/L12 (サルモネラ菌 (Salmonella enteritidis))
T9 construct: also called Salmonella enteritidis ribosomal protein L7/L12; SE L7/L12

[8] = target: T10, リステリア・モノサイトゲネス(LM)のリボソームタンパク質L7/L12 (リステリア・モノサイトゲネス (Listeria monocytogenes))
T10 construct: also called Listeria monocytogenes ribosomal protein L7/L12; LM L7/L12

[9] = target: T11, カンピロバクター・ジェジュニ(CJ)のリボソームタンパク質L7/L12 (カンピロバクター・ジェジュニ (Campylobacter jejuni))
T11 construct: also called Campylobacter jejuni ribosomal protein L7/L12; CJ L7/L12

[10] = target: T12, 肺炎球菌(SP)のリボソームタンパク質L7/L12 (肺炎球菌 (Streptococcus pneumoniae))
T12 construct: also called Streptococcus pneumoniae ribosomal protein L7/L12; SP L7/L12

[11] = target: T13, インフルエンザ菌(HI)のリボソームタンパク質L7/L12 (インフルエンザ菌 (Haemophilus influenzae))
T13 construct: also called Haemophilus influenzae ribosomal protein L7/L12; HI L7/L12

[12] = target: T14, 肺炎マイコプラズマ(MP)のリボソームタンパク質L7/L12 (肺炎マイコプラズマ (Mycoplasma pneumoniae))
T14 construct: also called Mycoplasma pneumoniae ribosomal protein L7/L12; MP L7/L12

[13] = target: T15, 百日咳菌(BP)のリボソームタンパク質L7/L12 (百日咳菌 (Bordetella pertussis))
T15 construct: also called Bordetella pertussis ribosomal protein L7/L12; BP L7/L12

[14] = target: T16, 肺炎クラミジア(CP)のリボソームタンパク質L7/L12 (肺炎クラミジア (Chlamydia pneumoniae))
T16 construct: also called Chlamydia pneumoniae ribosomal protein L7/L12; CP L7/L12

Measured: absorbance at 450 nm

B1: 汎用性抗体A(PA51B2) (antibody, V domains shown)
VH: QVQLQQPGSVLVRPGASVKLSCKPSGYTFTGSWMHWTKQRPGQGLEWIGEIHPYSGNTNYNEKFRVKATLTVDTSSSTTYVDLSSLTSDDSAVYYCASGDFDAGFTYWGQGTLVTVSA
VL: DIVLTQSPASLAVSLGRRATISCKASQSVDYDGDSYMNWYQQKPGQPPKLLIYVASNLESGIPARFSGSGSGTDFTLNIHPVEEEDAATYYCQQTNEDPFTFGAGTKLELK
notes: also called PA51B2; general-purpose antibody A
≥ 0.3 absorbance (450 nm): all assays above

B2: 汎用性抗体C(CP141A190.1) (antibody, V domains shown)
VH: QVQLQQPGAELVKPGASVKLSCKTSGYNFTSNWIHWVKQRPGQGLEWIGEINPSNGRANYNEKFKNKATLTVDKSSSTAFMHLSSLTSEDSAVYFCSRGDFDEGFTYWGQGTLVTVSA
VL: QIVLTQSPAIMSASLGERVTMTCTASSNVNSDYLHWYQQKPGSSPRLWIYTTSNLASGVPTRFSGNGSGTSYSLTISSMEAEDAATYYCHQYHRSPRTFGGGTKLEIK
notes: also called CP141A190.1; general-purpose antibody C
≥ 0.3 absorbance (450 nm): all assays above
